# Test results published in patent publication US20230002466A1 (ELPIS BIOPHARMACEUTICALS, published 2023).
# Positions count from the first letter of the chain named.
# T1: human IL2Rα Fc fusion protein (human, UniProt P01589 22-213, limits assumed)
# T1 construct: also called Recombinant Fc-tagged human IL2Rα; not shown: Fc
# T1 sequence (looked up): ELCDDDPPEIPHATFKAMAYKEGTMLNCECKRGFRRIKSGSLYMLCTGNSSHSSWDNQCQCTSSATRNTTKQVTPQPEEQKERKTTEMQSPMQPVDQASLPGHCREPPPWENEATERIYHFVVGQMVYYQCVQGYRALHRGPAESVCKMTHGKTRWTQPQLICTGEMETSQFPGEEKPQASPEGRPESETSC
# T2: human IL2Rβ (human, UniProt P14784 27-239)
# T2 construct: also called IL2β; CD122
# T2 sequence (looked up): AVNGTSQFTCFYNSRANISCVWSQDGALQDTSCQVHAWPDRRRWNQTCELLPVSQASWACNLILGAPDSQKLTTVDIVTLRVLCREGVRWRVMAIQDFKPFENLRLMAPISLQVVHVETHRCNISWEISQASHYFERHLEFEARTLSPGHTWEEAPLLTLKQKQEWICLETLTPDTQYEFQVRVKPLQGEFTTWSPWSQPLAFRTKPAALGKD
# T3: human IL2Rβ Fc fusion protein (human, UniProt P14784 27-239)
# T3 construct: also called Recombinant Fc-tagged human IL2Rβ; not shown: Fc
# T3 sequence (looked up): T2 sequence (looked up)
# B1: EP342 (ligand)
# chain: APTSSSTKKTQLQLEHLLLDLQMILNGINNYKNPKLTDMLTFKFSMPKKATELKHLQCLEEELKPLEEVLNLAQSKNFHLTARDAISNINVIIQELKGSETTFMCEYADETATIVEFLNRWITFCQSIISTLT
# notes: not shown: His and Flag tags
# B2: EP336 (ligand)
# chain: B1 chain with K35S, D38R, F42G, S45Y, A82P, S87D, N90R, Q94L
# notes: not shown: His and Flag tags
# B3: EP332 (ligand)
# chain: B1 chain with K35G, D38E, S45Y, A82P, S87D, N90R, Q94L
# notes: not shown: His and Flag tags
# B4: EP331 (ligand)
# chain: B1 chain with K35G, D38E, S45Y, A82P, S87D, N90R, I93V
# notes: not shown: His and Flag tags
# B5: EP351 (ligand)
# chain: B1 chain with D38R, F42A, S45Y, A82P, S87D, N90R, I93V
# notes: not shown: His and Flag tags
# B6: EP343 (ligand)
# chain: B1 chain with A82P, S87D, N90R, I93V
# notes: not shown: His and Flag tags
# B7: EP348 (ligand)
# chain: B1 chain with D38V, A82P, S87D, N90R, Q94L
# notes: not shown: His and Flag tags
# B8: EP352 (ligand)
# chain: B1 chain with D38R, F42A, S45Y, A82P, S87D, N90R, Q94L
# notes: not shown: His and Flag tags
# B9: EP335 (ligand)
# chain: B1 chain with K35S, D38R, F42G, S45Y, A82P, S87D, N90R, I93V
# notes: not shown: His and Flag tags
# B10: EP330 (ligand)
# chain: B1 chain with K35G, D38E, S45Y
# notes: not shown: His and Flag tags
# B11: EP344 (ligand)
# chain: B1 chain with A82P, S87D, N90R, Q94L
# notes: not shown: His and Flag tags
# B12: EP334 (ligand)
# chain: B1 chain with K35S, D38R, F42G, S45Y
# notes: not shown: His and Flag tags
# B13: EP411 (ligand)
# chain: B1 chain with D38V, T81G, A82V, R83T, A85S, I89A, N90I, I92L, I93A, Q94R
# notes: not shown: His and Flag tags
# B14: EP410 (ligand)
# chain: B1 chain with D38V, I86V, S87D, I89M, N90R
# notes: not shown: His and Flag tags
# B15: EP242 (ligand)
# chain: B1 chain with D38R, S45Y, N90R, I93V
# notes: EP001 back-mutation clone; not shown: His and Flag tags
# B16: EP247 (ligand)
# chain: B1 chain with D38R, S45Y, T81R, S87D, N90R, I93V
# notes: not shown: His and Flag tags
# B17: EP263 (ligand)
# chain: B1 chain with D38R, S45Y, S87D, N90R, I93V, Q94L
# notes: not shown: His and Flag tags
# B18: EP255 (ligand)
# chain: B1 chain with D38R, S45Y, A85L, S87D
# notes: not shown: His and Flag tags
# B19: EP256 (ligand)
# chain: B1 chain with D38R, S45Y, A85L, S87D, N90R, I93V
# notes: not shown: His and Flag tags
# B20: EP262 (ligand)
# chain: B1 chain with D38R, S45Y, S87D, Q94L
# notes: not shown: His and Flag tags
# B21: EP254 (ligand)
# chain: B1 chain with D38R, S45Y, A85L, N90R
# notes: not shown: His and Flag tags
# B22: EP261 (ligand)
# chain: B1 chain with D38R, S45Y, S87D, I93V
# notes: not shown: His and Flag tags
# B23: EP251 (ligand)
# chain: B1 chain with D38R, S45Y, A82P, S87D
# notes: not shown: His and Flag tags
# Biological target: T1, human IL2Rα Fc fusion protein
# Assay: ELISA, single point, Fc-tagged human IL2Rα coated, anti-His-HRP; concentration not printed (Example 14)
# Experimental: (§1) Recombinant Fc-tagged human IL2Rα and IL2Rβ were added in 25 uL of 1×PBS to wells of 384-well plate and incubated overnight at 4° C. to coat the plates. Plates were washed three times with 0.05% Tween20/1×PBS. Plates were blocked with 100 uL of SuperBlock for 1 hr at RT and then washed 3 times with 0.05% Tween20/1×PBS. IL2 mutants were diluted in 0.05% Tween 20/1×PBS from 1000 nM to 0 nM and added to plates for 2 hrs at room temperature. Plates were then washed 6 times with 0.05% Tween20/1×PBS. Anti-HisTag-HRP was diluted 1:5000 in 0.05% Tween20/1×PBS and added to plates for 1 hr at RT. Plates were then washed 6 times with 0.05% Tween 20/1×PBS, and TMB was added to develop blue color. Reactions were stopped with 2N […] and light absorbance at 450 nm was read on a BioTek plate reader.
row,binding result,Binder
1,no binding (tested: not printed),B1
2,no binding (tested: not printed),B2
3,no binding (tested: not printed),B3
4,no binding (tested: not printed),B4
5,no binding (tested: not printed),B5
6,no binding (tested: not printed),B6
7,no binding (tested: not printed),B7
8,no binding (tested: not printed),B8
9,no binding (tested: not printed),B9
10,no binding (tested: not printed),B10
11,no binding (tested: not printed),B11
12,no binding (tested: not printed),B12

# Biological target: T2, human IL2Rβ
# Assay: SPR, IL2Rβ captured on Protein A chip
# Experimental: Kinetic analysis of the receptor binding activities of IL2Rβ agonist with IL2Rα reduced activity mutations have been assessed by SPR technology with Biacore T200. The assay was run with Biacore T200 control software version 2.0. For each cycle, 1 ug/mL of human IL2Rβ was captured for 60 seconds at flow rate of 10 ul/min on flow cell 2 in 1×HBSP buffer on Protein A sensor chip. 100 nM of HIS and Flag tag purified each IL2 mutant was 2 fold serial diluted and injected onto both reference flow cell 1 and IL2Rβ captured flow cell 2 for 150 seconds at flow rate of 30 ul/mins followed by wash for 300 seconds. The flow cells were then regenerated with Glycine pH2 for 60 seconds at flow rate of 30 ul/mins. The assay was set up with 8 serial diluted concentration points in 96 well format. The kinetics data was analyzed with Biacore T200 evaluation software 3.0. The specific binding response unit was derived from subtraction of binding to reference flow cell 1 from target flow cell 2.
Kd,koff,kon,Binder
0.461 nM,0.000839 s⁻¹,1.82e+06 M⁻¹ s⁻¹,B13
0.827 nM,0.00594 s⁻¹,7.19e+06 M⁻¹ s⁻¹,B14

# Biological target: T2, human IL2Rβ
# Assay: SPR, IL2Rβ captured on Protein A chip
# Remark: another data set of the same source
# Experimental: The assay was run with Biacore T200 control software version 2.0. For each cycle, 1 ug/mL of human IL2Rβ was captured for 60 seconds at flow rate of 10 uL/min on flow cell 2 in 1×HBSP buffer on Protein A sensor chip. 100 nM of HIS and Flag tag purified each IL2 mutant was 2-fold serial diluted and injected onto both reference flow cell 1 and IL2Rβ captured flow cell 2 for 150 seconds at flow rate of 30 uL/min followed by washing for 300 seconds. The flow cells were then regenerated with Glycine pH2 for 60 seconds at a flow rate of 30 uL/min. The assay was set up with 8 serial diluted concentration points in 96-well format. The kinetics data was analyzed with Biacore T200 evaluation software 3.0. The specific binding response unit was derived from subtraction of binding to reference flow cell 1 from target flow cell 2 (FIGS. 16A-16F, Table 10).
Kd,koff,kon,Binder
7.16 nM,0.0241 s⁻¹,3.36e+06 M⁻¹ s⁻¹,B15
7.23 nM,0.0304 s⁻¹,4.2e+06 M⁻¹ s⁻¹,B16
2.79 nM,0.0191 s⁻¹,6.84e+06 M⁻¹ s⁻¹,B17

# Biological target: T3, human IL2Rβ Fc fusion protein
# Assay: ELISA, Fc-tagged receptor coated, anti-HisTag-HRP
# Experimental: as §1
row,EC50,Binder
1,58.9 nM,B1
2,133 nM,B2
3,44 nM,B3
4,39.3 nM,B4
5,21.2 nM,B5
6,19.7 nM,B6
7,124 nM,B7
8,33.8 nM,B8
9,59.1 nM,B9
10,50.7 nM,B11
11,28.6 nM,B12

# Biological target: T3, human IL2Rβ Fc fusion protein
# Assay: ELISA, receptor-Fc coated, anti-Flag HRP
# Experimental: (§2) Briefly, 384 well plate was immobilized with human IL2Rα and IL2Rβ Fc fusion proteins at a final concentration of 2 ug/mL in 1×PBS in total volume of 25 uL per well. The plate was incubated overnight at 4 C and blocked with 80 uL of superblock per well for 1 hour. […] Each dilution was added to IL2Rα or IL2Rβ wells in parallel in duplicates. The IL2 mutant binding was detected by adding 25 uL of anti-Flag HRP diluted at 1:5000 in 1×PBST. In between each step, the plate was washed three times with 1×PBST using a plate washer. The plate was then developed with 25 uL of TMB substrate for five minutes and stopped by adding 25 ul of 2N sulfuric acid. The plate was read at OD450 nm Biotek plate reader and the EC50 was analyzed with Prism 8.1 software to generate EC50 values (FIG. 15A for IL2Rα, and FIG. 15B for IL2Rβ, summarized in Table 9).
row,EC50,Binder
1,5.7 nM,B15
2,360 nM,B18
3,362 nM,B19
4,53.2 nM,B20
5,4.7 nM,B16
6,556 nM,B21
7,1.3 nM,B17
8,124 nM,B22
9,2.5 nM,B23

# Biological target: T1, human IL2Rα Fc fusion protein
# Assay: ELISA, receptor-Fc coated, anti-Flag HRP
# Experimental: as §2
row,EC50,Binder
1,8.7 nM,B15
2,4.3 nM,B18
3,5.3 nM,B19
4,32.1 nM,B20
5,8.3 nM,B16
6,4.3 nM,B21
7,4.9 nM,B17
8,2.9 nM,B22
9,16.8 nM,B23
